Several values for one entry are separate records, joined by “and”; a condition that tells them apart may be missing. Equal values may be shown once.
T1: MBP-fused full-length SIX3 (SIX3 without aa 1-78) (human, UniProt O95343 79-332)
T1 construct: SIX3, human, without the N-terminal homopolymeric region (aa 1-78, GenBank AF049339); A TEV site lies between the tags and SIX3; also called MBPSIX3; source: E. coli BL21Star (DE3), purified (Ni-NTA HisTrap HP, size exclusion); not shown: MBP, N-terminal, kept
T1 sequence (looked up): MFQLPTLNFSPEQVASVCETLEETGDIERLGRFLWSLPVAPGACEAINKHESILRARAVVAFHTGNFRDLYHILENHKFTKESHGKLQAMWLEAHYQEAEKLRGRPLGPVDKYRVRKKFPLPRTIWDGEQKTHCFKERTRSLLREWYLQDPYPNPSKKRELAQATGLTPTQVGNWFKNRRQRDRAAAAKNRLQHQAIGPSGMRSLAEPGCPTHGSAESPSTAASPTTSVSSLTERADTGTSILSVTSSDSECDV

B1: MBP-fused SIX domain of SIX3 (domain or fragment)
chain: MFQLPTLNFSPEQVASVCETLEETGDIERLGRFLWSLPVAPGACEAINKHESILRARAVVAFHTGNFRDLYHILENHKFTKESHGKLQAMWLEAHYQEAEKLRGRPLGPVDKYRVRKKFPLPRTIWD
modifications: Assayed as an N-terminal His6-MBP fusion (left out). Start follows the printed deletion of aa 1-78; end is derived from the stop-codon primer (T-I-W-D-stop), just before the homeobox at 206.
B2: GEMININ (human, full-length, MBP tag removed) (natural protein, UniProt O75496 1-209, looked up)
chain: MNPSMKQKQEEIKENIKNSSVPRRTLKMIQPSASGSLVGRENELSAGLSKRKHRNDHLTSTTSSPGVIVPESSENKNLGGVTQESFDLMIKENPSSQYWKEVAEKRRKALYEALKENEKLHKEIEQKDNEIARLKKENKELAEVAEHVQYMAELIERLNGEPLDNFESLDNQEFDSEEETVEDSLVEDSEIGTCAEGTVSSSTDAKPCI
notes: The His6 tag lies with MBP at the N-terminus, before the TEV site of pETMBP_1, so it was probably removed with MBP; also called GMNN; source: E. coli BL21Star (DE3), purified (Ni-NTA HisTrap HP, TEV digestion, size exclusion); not shown: MBP, N-terminal, cleaved

Key:
Details in all cases: both partners purified
[1] = biological target: B2; assay: SPR; Biacore T200, GEMININ (1370 RU) immobilised by amine coupling on a CM5 chip; MBP fusions or MBP alone as analyte; 25 °C; PBS-TCEP (3.5 mM TCEP) with 350 mM NaCl (results: 437 mM NaCl); 30 μl/min; apparent KD from a steady-state fit
[2] = biological target: T1, MBP-fused full-length SIX3 (SIX3 …); assay: as above
[3] = biological target: T1, MBP-fused full-length SIX3 (SIX3 …); assay: ITC; Nano ITC LV, 25 °C, PBS-TCEP with 300 mM NaCl (results: 437 mM NaCl); 200 μM GEMININ (or its coiled-coil region) in the syringe, 10 μM MBPSIX3 (or MBP alone) in the cell; independent binding sites model; GEMININ-to-MBP control subtracted

Kd [1]	Kd [2] [µM]	Kd [3]	dH [3] [kJ/mol]	stoichiometry N [3]	Binder
19.5 µM and 19.6 µM	–	–	–	–	B1
–	3.19	3.4 µM and 3.41 µM	-317	0.55	B2
